The record followed here is US11028172 (LEPU BIOPHARMA, dated 2021).

A word on the EC50: it is the concentration that produces a half-maximal response. As a reminder, the Kd is the free concentration of one partner at which half of the binding sites on the other are occupied at equilibrium, for simple one-to-one binding. A higher Kd goes with a looser complex. By koff is commonly meant the first-order rate constant of dissociation. Low values mean slow dissociation, high ones fast dissociation. One may read the kon as the second-order rate constant of association. A word on the IC50: it is the concentration that inhibits the measured activity by half.

Like-named read-outs stand apart in the source and are kept apart here.

Test [1] concerns the target T1, human TIGIT expressed on cells (human, UniProt Q495A1 22-244).
T1 sequence (looked up): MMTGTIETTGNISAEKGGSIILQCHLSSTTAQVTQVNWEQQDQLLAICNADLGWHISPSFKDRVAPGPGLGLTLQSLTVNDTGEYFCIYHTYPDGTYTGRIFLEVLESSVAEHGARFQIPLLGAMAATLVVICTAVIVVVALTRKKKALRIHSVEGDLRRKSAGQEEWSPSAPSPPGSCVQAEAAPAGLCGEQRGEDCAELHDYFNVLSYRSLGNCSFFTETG
Kind of test: cell-based or functional assay.

The target of test [2] is T1, human TIGIT expressed on cells. Briefly: flow cytometry (FACS) on human TIGIT overexpressing mammalian cells. The method, then: (§1) To evaluate the antigen binding property, the humanized antibodies were analyzed for their binding to human TIGIT overexpressed mammalian cells by FACS. Briefly, human TIGIT cells were firstly incubated with 3-fold serious diluted humanized antibodies starting at 5 µg/ml at 4° C. for 40 mins.
A general note: A flow cytometer gives signals particle by particle.

The target is the same in test [3]. Kind of test: flow cytometry on human TIGIT overexpressing cells, Alexa Fluor 647 anti-human IgG; unit from the x axis. How it is done: as §1
Test [4] has the same target. Kind of test: cell-based or functional assay. The source holds these as a separate data set.
Test [5] addresses T2, human TIGIT-His protein (human, UniProt Q495A1 22-141).
T2 construct: Recombinant protein; also called human TIGIT-his tag; hTIGIT-His
T2 sequence (looked up): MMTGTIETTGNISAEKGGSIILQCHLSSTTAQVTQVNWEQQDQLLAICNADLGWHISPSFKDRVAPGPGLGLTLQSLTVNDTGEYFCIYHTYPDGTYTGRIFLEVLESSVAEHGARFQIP
Kind of test: SPR (Biacore) affinity ranking, human TIGIT-His. In general terms: SPR reads the build-up and loss of mass on a sensor chip optically.

Test [6] deals with T3, biotin-labeled human TIGIT protein (human, UniProt Q495A1 22-141, biotin-labeled (sites not given)).
T3 construct: also called recombinant human TIGIT
T3 sequence (looked up): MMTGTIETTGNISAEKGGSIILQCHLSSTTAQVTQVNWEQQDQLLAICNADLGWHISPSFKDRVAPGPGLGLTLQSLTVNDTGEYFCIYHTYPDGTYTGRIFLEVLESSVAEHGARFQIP
Kind of test: ELISA blocking assay: CD155-hFc coated, biotin-labeled human TIGIT, antibody titrated. How it is done:
To evaluate the blocking effects of Hu02 and Hu06 on recombinant human TIGIT to bind to its receptor CD155, an ELISA based receptor blocking assay was used.
Briefly, microtiter plates were coated with human CD155-hFc protein at 5 µg/ml in PBS, 100 µl/well at 4° C. overnight, then blocked with 150 µl/well of 1% BSA. 50 µl biotin-labeled human TIGIT protein and 3-fold dilutions of Hu02 and Hu06 antibodies starting from 10 µg/ml at 50 µl were added to each well and incubated for 1 hour at 37° C. The plates were washed with PBS/Tween and then incubated with Streptavidin-HRP for 10 mins at 37° C. After washing, the plates were developed with TMB substrate and analyzed by spectrophotometer at OD 450 nm.
For orientation: In an ELISA, binding on a coated surface is turned into a signal by an enzyme label.

Test [7] deals with T2, human TIGIT-His protein. Briefly: SPR (Biacore T200) full kinetics, antibody captured on Protein A chip, hTIGIT-His as analyte. How it is done:
The binding of the humanized antibodies to recombinant TIGIT protein (human TIGIT-his tag) was tested by BIACORE™ using a capture method. Hu02 and Hu06 mAbs were captured using Protein A chip. A serial dilution of human TIGIT-his tag protein was injected over captured antibody for 2 mins at a flow rate of 30 µl/min. The antigen was allowed to dissociate for 1800 s. All the experiment were carried out on a Biacore T200.

In test [8] the target is T2, human TIGIT-His protein. Briefly: ELISA, plate coated with human TIGIT-His, anti-human IgG-HRP, OD 450nm; unit taken from the axis Log[Conc.]/ng/ml. The method, then:
(§2) To evaluate the antigen binding activity, the humanized antibodies were subjected to ELISA test. Briefly, microtiter plates were coated with human TIGIT-his protein at 0.5 µg/ml in PBS, 100 µl/well at 4° C. overnight, then blocked with 150 µl/well of 1% BSA. Three-fold dilutions of humanized antibodies starting from 3 µg/ml were added to each well and incubated for 1 hour at 37° C. The plates were washed with PBS/Tween and then incubated with Goat-anti-human IgG antibody conjugated with Horse Radish Peroxidase (HRP) for 30 mins at 37° C. After washing, the plates were developed with TMB substrate and analyzed by spectrophotometer at OD 450 nm.

Test [9] concerns the target T2, human TIGIT-His protein. The description is as above. The method, then:
as §2, with “Hu02 and Hu06” for “the humanized antibodies”, “0.5 hour” for “30 mins”
The source holds these as a separate data set.

B1: Tiragolumab (RG6058, Roche) (antibody, V domains shown)
VH: EVQLQQSGPGLVKPSQTLSLTCAISGDSVSSNSAAWNWIRQSPSRGLEWLGKTYYRFKWYSDYAVSVKGRITINPDTSKNQFSLQLNSVTPEDTAVFYCTRESTTYDLLAGPFDYWGQGTLVTVSS
VL: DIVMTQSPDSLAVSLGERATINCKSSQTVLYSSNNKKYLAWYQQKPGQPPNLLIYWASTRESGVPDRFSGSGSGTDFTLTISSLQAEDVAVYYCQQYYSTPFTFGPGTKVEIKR
Turning to B1, in test [1], the “EC50, NFAT luciferase reporter (RLU), TIGIT-CD226-NFAT effector cells with Raji-CD155 target cells” value was 2.95 nM and the “LogEC50, NFAT luciferase reporter (RLU), TIGIT-CD226-NFAT effector cells with Raji-CD155 target cells” value stood at 0.47 Log[Conc.]/nM. The molecule also yielded an EC50 in test [2] of 0.0368 µg/mL. This molecule also came in with a LogEC50 in test [3] of 1.57 Log[Conc.]/ng/ml.

B2: 76D12B10-Hu02 (antibody, V domains shown)
VH: EVQLQESGPGLVKPSETLSLTCAVSGYSISSGYDWHWIRQPPGKGLEWIGFIRDSGSTVYNPSLKGRITISHDTSKNQFSLKLSSVTAADTAVYYCARGLFWYFDVWGQGTTVTVSS
VL: DIQMTQSPSSLSASVGDRVTITCRTSENIFSYLAWYQQKPGKVPKLLIYNTKTLAEGVPSRFSGSGSGTDFTLTISSLQPEDVATYYCQHHYGNPLTFGQGTKLEIK
notes: Humanized, VH.V2 + VK.V0
As for B2, the “NFAT luciferase production, EC50” value in [4] amounted to 1.76 nM. In the test with human TIGIT-His protein [5], this molecule registered a Kd of 0.0196 nM, a koff of 9.74e-05 s⁻¹ and a kon of 4.98e+06 M⁻¹ s⁻¹. In test [6], this molecule displayed an IC50 of 1.13 µg/mL. In the test with human TIGIT-His protein [7], this molecule returned a Kd of 0.0462 nM, a koff of 9.27e-05 s⁻¹ and a kon of 2e+06 M⁻¹ s⁻¹. For the same molecule, a half-maximal effect with human TIGIT-His protein [8] (EC50) was put at 0.0103 µg/mL. A half-maximal response with human TIGIT-His protein [9] (EC50) required 8.23 ng/mL.

B3: 76D12B10-Hu14 (antibody, V domains shown)
VH: EVQLQESGPGLVKPSETLSLTCAASGYSITSGYDWHWIRQPPGKGLEWMGFIRDSGSTVYNPSLKGRITISHDTSKNQFSLKLSSVTAADTAVYYCARGLFWYFDVWGQGTTVTVSS
VL: DIQMTQSPSSLSASVGDRVTITCRTSENIFSYLAWYQQKPGKVPKLLVHNTKTLAEGVPSRFSGSGSGTDFTLTISSLQPEDVATYYCQHHYGNPLTFGQGTKLEIK
notes: Humanized, VH.V4 + VK.V2
In the case of B3, in the test with human TIGIT-His protein [5], the dissociation constant (Kd) is 0.0196 nM, the koff amounted to 9.97e-05 s⁻¹ and the kon was found to be 5.09e+06 M⁻¹ s⁻¹. The same molecule returned an EC50 with human TIGIT-His protein [8] of 0.0107 µg/mL.

B4: 76D12B10-Hu12 (antibody, V domains shown)
VH: EVQLQESGPGLVKPSETLSLTCAVSGYSISSGYDWHWIRQPPGKGLEWIGFIRDSGSTVYNPSLKGRITISHDTSKNQFSLKLSSVTAADTAVYYCARGLFWYFDVWGQGTTVTVSS
VL: DIQMTQSPSSLSASVGDRVTITCRTSENIFSYLAWYQQKPGKVPKLLVHNTKTLAEGVPSRFSGSGSGTDFTLTISSLQPEDVATYYCQHHYGNPLTFGQGTKLEIK
notes: Humanized, VH.V2 + VK.V2
B4: in the test with human TIGIT-His protein [5], binding was put at a Kd of 0.0244 nM, the koff was 0.00014 s⁻¹ and the kon turned out to be 5.75e+06 M⁻¹ s⁻¹. The molecule also showed an EC50 in the test with human TIGIT-His protein [8] of 0.0111 µg/mL.

B5: 76D12B10-Hu15 (antibody, V domains shown)
VH: EVQLQESGPGLVKPSETLSLTCAASGYSITSGYDWHWIRQPPGKKLEWMGFIRDSGSTVYNPSLKGRITISHDTSKNQFSLKLSSVTAADTAVYFCARGLFWYFDVWGQGTTVTVSS
VL: DIQMTQSPSSLSASVGDRVTITCRTSENIFSYLAWYQQKPGKVPKLLVHNTKTLAEGVPSRFSGSGSGTDFTLTISSLQPEDVATYYCQHHYGNPLTFGQGTKLEIK
notes: Humanized, VH.V5 + VK.V2
In the test with human TIGIT-His protein [5], B5 showed a dissociation constant (Kd) of 0.0135 nM, a koff of 0.000105 s⁻¹ and a kon of 7.76e+06 M⁻¹ s⁻¹. A half-maximal effect in the test with human TIGIT-His protein [8] (EC50) was put at 0.00968 µg/mL.

B6: 76D12B10-Hu11 (antibody, V domains shown)
VH: EVQLQESGPGLVKPSETLSLTCAVSGYSISSGYDWHWIRQPPGKGLEWIGFIRDSGSTVYNPSLKGRVTISHDTSKNQFSLKLSSVTAADTAVYYCARGLFWYFDVWGQGTTVTVSS
VL: DIQMTQSPSSLSASVGDRVTITCRTSENIFSYLAWYQQKPGKVPKLLVHNTKTLAEGVPSRFSGSGSGTDFTLTISSLQPEDVATYYCQHHYGNPLTFGQGTKLEIK
notes: Humanized, VH.V1 + VK.V2
As to B6, in the test with human TIGIT-His protein [5], the Kd came out at 0.0255 nM, the koff is 9.21e-05 s⁻¹ and the kon was determined as 3.62e+06 M⁻¹ s⁻¹. In addition, in the test with human TIGIT-His protein [8], the EC50 is 0.00709 µg/mL.

B7: 76D12B10-Hu13 (antibody, V domains shown)
VH: EVQLQESGPGLVKPSETLSLTCAVSGYSISSGYDWHWIRQPPGKGLEWMGFIRDSGSTVYNPSLKGRITISHDTSKNQFSLKLSSVTAADTAVYYCARGLFWYFDVWGQGTTVTVSS
VL: DIQMTQSPSSLSASVGDRVTITCRTSENIFSYLAWYQQKPGKVPKLLVHNTKTLAEGVPSRFSGSGSGTDFTLTISSLQPEDVATYYCQHHYGNPLTFGQGTKLEIK
notes: Humanized, VH.V3 + VK.V2
For B7, in the test with human TIGIT-His protein [5], the dissociation constant (Kd) came to 0.0281 nM, the koff amounted to 0.000128 s⁻¹ and the association rate constant (kon) came out at 4.54e+06 M⁻¹ s⁻¹. The molecule further showed an EC50 with human TIGIT-His protein [8] of 0.0121 µg/mL.

B8: 76D12B10-Hu10 (antibody, V domains shown)
VH: EVQLQESGPGLVKPSETLSLTCAASGYSITSGYDWHWIRQPPGKKLEWMGFIRDSGSTVYNPSLKGRITISHDTSKNQFSLKLSSVTAADTAVYFCARGLFWYFDVWGQGTTVTVSS
VL: DIQMTQSPSSLSASVGDRVTITCRTSENIFSYLAWYQQKPGKVPKLLIHNTKTLAEGVPSRFSGSGSGTDFTLTISSLQPEDVATYYCQHHYGNPLTFGQGTKLEIK
notes: Humanized, VH.V5 + VK.V1
In the test with human TIGIT-His protein [5], B8 came in with a Kd of 0.0266 nM, a dissociation rate constant (koff) of 9.79e-05 s⁻¹ and a kon of 3.68e+06 M⁻¹ s⁻¹. Further, the 50% effective concentration (EC50) with human TIGIT-His protein [8] was found to be 0.00401 µg/mL.

B9: 76D12B10-Hu06 (antibody, V domains shown)
VH: EVQLQESGPGLVKPSETLSLTCAVSGYSISSGYDWHWIRQPPGKGLEWIGFIRDSGSTVYNPSLKGRVTISHDTSKNQFSLKLSSVTAADTAVYYCARGLFWYFDVWGQGTTVTVSS
VL: DIQMTQSPSSLSASVGDRVTITCRTSENIFSYLAWYQQKPGKVPKLLIHNTKTLAEGVPSRFSGSGSGTDFTLTISSLQPEDVATYYCQHHYGNPLTFGQGTKLEIK
notes: Humanized, VH.V1 + VK.V1
Regarding B9, the “NFAT luciferase production, EC50” value in test [4] was found to be 1.67 nM. In the test with human TIGIT-His protein [5], this molecule displayed a Kd of 0.0136 nM, a koff of 0.000101 s⁻¹ and a kon of 7.43e+06 M⁻¹ s⁻¹. Further, the IC50 in test [6] was found to be 0.866 µg/mL. Further, in the test with human TIGIT-His protein [7], the Kd stood at 0.0416 nM, the koff came to 7.18e-05 s⁻¹ and the kon turned out to be 1.72e+06 M⁻¹ s⁻¹. Further, the EC50 with human TIGIT-His protein [8] was determined as 0.0104 µg/mL. The response with human TIGIT-His protein [9] was half-maximal at 9.34 ng/mL (EC50).
